Data from patent US20230115257A1 (published 2023).
Several values for one entry are separate records, joined by “and”; a condition that tells them apart may be missing. Equal entries are not always repeated. Where two headings read alike, the source gives them in different places.

Key:
Experiment in all cases: ELISA
[1] = target: T1, SARS-CoV-2 B.1.617.2 spike trimer variant (SARS-CoV-2 B.1.617.2 (Delta), UniProt P0DTC2 16-1213)
[2] = target: T2, SARS-CoV-2 Beta (B.1.351) variant prefusion stabilized spike trimer protein (UniProt P0DTC2 14-1213)
[3] = target: T2, SARS-CoV-2 Beta (B.1.351) variant …; remark: listed apart in the source
[4] = target: T3, SARS-CoV-2 B.1.1.529 spike trimer variant (SARS-CoV-2 B.1.1.529 (Omicron), UniProt P0DTC2 16-1213)
[5] = target: T4, SARS-CoV-2 BA.2 spike trimer variant (SARS-CoV-2 Omicron BA.2, UniProt P0DTC2 16-1213)
[6] = target: T1, SARS-CoV-2 B.1.617.2 spike trimer …; remark: listed apart in the source
[7] = target: T4, SARS-CoV-2 BA.2 spike trimer variant; remark: listed apart in the source
[8] = target: T3, SARS-CoV-2 B.1.1.529 spike trimer …; remark: listed apart in the source
[9] = target: T3, SARS-CoV-2 B.1.1.529 spike trimer …; remark: listed apart in the source
[10] = target: T1, SARS-CoV-2 B.1.617.2 spike trimer …; remark: listed apart in the source
[11] = target: T4, SARS-CoV-2 BA.2 spike trimer variant; remark: listed apart in the source

Row | Binder | EC50 [1] | IC50 [2] | IC50 [6] | EC50 [7] | EC50 [8] | IC50 [10] | other results
1 | 4-K13-A (antibody, V domains shown) VH: QAYLQQSGAELVRPGASVKMSCKASGYTFTSYTVHWVKQTPRQGLEWIGAIYPGNVDTSYNQNFKGKATLTVDKSSSTAYMQLSSLTSEDSAVYFCARDGYYAMDYWGQGTSVTVSS VL: not shown | 29.3 nM and 4.54 µg/mL | – | – | – | – | – | –
2 | 4-L4-A (antibody, V domains shown) VH: QAYLQQSGAELVRPGASVKMSCKASGYTFTSYTVHWVKQTPRQGLEWIGGIYPGNVDTSYNQNFKGKATLTVDKSSSTAYMQLSSLTSEDSAVYFCARDGYYAMDYWGQGTSVTVSS VL: not shown | – | 5.99 nM | – | – | – | – | –
3 | 1-L10-A (antibody, V domains shown) VH: EVKLEESGGGLVQPGGSMKLSCVASGFTFNNYWMNWVRQSPEKGLEWVAQMRLKSDNYATHYAESVKGRFTISRDDSKSSVYLQMNNLRAEDTGIYYCIEGYWTYWGQGTLVTVSA VL: QIVLTQSPAIMSASLGERVTMTCTASSSVSSSYLHWYQQKPGSSPKLWIYSTSNLASGVPARFSGNGSGTSYSLTISSMEAEDAATYYCLQYHRSPPYTFGGGTKLEIK | – | 10.8 nM | – | – | – | – | –
4 | 4-C22-A (antibody, V domains shown) VH: EVQLVESGGDLVKPGGSLKLSCAASGFTFSSFGMSWVRQTPDKRLEWVATISSGGGFTYYPDSVEGRFTISRDNAKNTLYLQMSSLKSEDTAMYYCARRLYDYDWFAYWGQGTLVTVSA VL: DIVMTQSHKIMSTSVGDRVSITCKASQDVVTAVAWYQKKPGQSPKLLIHWASTRHTGVPDRFTGSGSGTDFTLTISNVQSEDLADYFCQQYSSYPLTFGAGTKLELK | – | – | – | – | – | – | EC50 [3]: 0.53 nM
5 | 2-G20-A (antibody, V domains shown) VH: EVQLQQSGPELVKPGASVKMSCKASGYTFPSYVLHWVKQKPGQGLEWIGYIYPYNDGTNYNEKFKGKATLTSDKSSSTAYMELSSLTSEDSAVYYCARGDYGDSAWFPYWGQGTLVTVSA VL: DIVLTQSPASLAVSLGQRATISCRASKSVSTSGYSYMHWYQQKPGQPPKLLIYLASNLKSGVPARFSGGGSGTDFTLNIHPVEEEDAATYYCQLSRELPWTFGGGTKLEIK | – | 18.6 nM | – | – | – | – | –
6 | 2-H7-A (antibody, V domains shown) VH: QAYLQQSGAELVRPGASVKMSCKASGYTFTGYTMHWVKQTPRQGLEWIGAIYPENGDTSYNQKFKGKATLTVDKSSSTAYMQLSSLTSEDSAVYFCARDGYDVLYGMDYWGQGTSVTVSS VL: DIVLTQSPASLAVSLGQRATISCRASKSVSTSGYSYMHWYQQKPGQPPKLLIYLASNLESGVPARFSGSGSGTDFTLNIHPVEEEDAATYYCQHSRELPWTFGGGTKLDIK | – | 10.8 nM | – | – | – | – | –
7 | 4-N22-A (antibody, V domains shown) VH: QVQLQQPGTELVKPGASVKLSCKASGYTFTNYWMYWVKQRPGQGLDWIGNINPSNGGTNYNEKFKSKATLTVDKSSSTAYMQLSSLTSEDSAVYYCARETGNYWGQGTTLTVSS VL: DILMTQSPSSMSVSLGDTVSISCHASQGISSNIGWLQQKPGKSFKGLIYHGTNLEDGVPSRFSGSGSGADYSLTISSLESEDFADYYCVQYAQFPYTFGGGTKLEIK | 0.218 nM and 0.034 µg/mL | 14 nM | 2.6 µg/mL and 17.5 nM | 0.75 nM | 0.48 nM | 17.5 nM | IC50 [4]: 23.4 nM; IC50 [5]: 25.8 nM; IC50 [9]: 23.4 nM; IC50 [11]: 25.8 nM
8 | 4-M3-A (antibody, V domains shown) VH: EVQLQQSGPELVKPGDSVKISCKASGYSFTGYFMNWVMQSHGKSLEWIGRINPNNGETFYNQKFKGKATLTVDKSSDTAHMELRSLTSEDSAVYYCARGGTGTGWGQGTTLTVSS VL: DILMTQSPSSMSVSLGDTVSITCHASQGISSNIGWLQQKPGKSFKGLIYYGTNLEDGVPSRFSGSGSGADYSLTISSLESEDLADYYCIQYAQFPYTFGGGTKLEIK | 0.522 nM and 0.081 µg/mL | 10.8 nM | 9.3 µg/mL and 62.1 nM | – | – | 62.1 nM | –
9 | 1-B11-A (antibody, V domains shown) VH: QVQLQQSGPELVKPGASVKISCKASGYTFTDHYINWVKQRPGQGLEWIGWIFPGSGSTYYNEQFKGKATLTVDKSSNTAYMLLSSLTSEDSAVYFCARSGGLRLGFAYWGQGTLVTVSA VL: DIQMTQTTSSLSASLGDRVTISCRASQDISNYLNWYQQKPDGTVKLLIYYTSRLHSGVPSRFSGSGSGTDYSLTISNLEQEDISTYFCQQVNTLPYTFGGGTKLEIK | 0.12 µg/mL and 0.772 nM | – | – | 181 nM | 1.88 nM | – | –
10 | 9-G24-A (antibody, V domains shown) VH: QVQLQQSGAELVRPGASVKLSCKASGYTFTDYEMHWVKQTPVHGLEWIGVIDPETGDTAYNQKFKDKATLTADKSSSTAYMELRSLTSEDSAVYYCARRRDYGNPYWYFDVWGAGTAVTVSS VL: EIVLTQSPALMAASPGEKVTITCSASSSISSSNLHWYQQKSGTSPKPWIYGTSNLASGVPVRFSGSGSGTSYSLTISSMEAEDAATYVCQQWSNYPYTFGSGTKLEIK | – | – | – | – | – | – | EC50 [3]: 0.56 nM
11 | 3-K11-A (antibody, V domains shown) VH: EVQLQQSGPELVKPGASVKMSCKASGYTFTSYVMHWVKQKPGQGLEWIGYINPYNDGTEYNEKFKGKATLTSDKSSSTAYMELSSLTSEDSAVYHCAREAYRYFDVWGTGTTVTVSS VL: DIQMTQSPASLSVSVGETVTITCRASENIYSNLAWYQQKQGKYPQLLVYGATNLADGVPSRFSGSGSGTQYFLKINSLQSEDFGSYYCQHFWGIPWTFGGGTKLEIK | – | – | – | – | 20.6 nM | – | EC50 [3]: 2.87 nM
12 | 2-B16-B (antibody, V domains shown) VH: EVQLQQSGAELVRPGSSVKMSCKTSGYTFTSYGINWVKQRPGQGLEWIGYIYIGNGYTAYNEKFKGKATLTSDTSSSTAYMQLSSLTSEDSAIYFCARDGTRDAMDYWGQGTSVTVSS VL: DIQMTQSPASLSASVGETVTITCRASENIYSNLAWYQQKQGKSPQLLVYAATNLADGVPSRFSGSGSGTQFSLKINSLQPEDFGSYYCQHFYSSPWTFGGGTKLEIK | – | – | – | – | – | – | EC50 [3]: 0.27 nM
13 | 6-O12-A (antibody, V domains shown) VH: QVQLQQPGTELVKPGASVKLSCKASGYTFTSYWMHWVKQRPGQGLEWIGNINPSNGGTNYNEKFRSKATLTVDKSSSTAYMQLSSLTSEDSAVYYCARLGWFLPLGSWGQGTTLTVSS VL: QIVLTQSPAIMSASLGEVITLTCSASSSVSYMHWYQQKSGTSPKLLIYSTSNLASGVPSRFSGSGSGTFYSLTISSVEAEDAADYYCHQWSGYMYTFGGGTKLEIK | – | 7.76 nM | – | – | – | – | –
14 | 8-H5-A (antibody, V domains shown) VH: QVTLKESGPGILQSSQTLSLTCSLSGFSLSTSGMGVSWVRQPSGKGLEWLAHIYWDDDKRYTPSLKSRLTISTDSSRKQVFLKITSVDTADTATYYCARRDLHDYDGWFAYWGQGTLVTVSA VL: DIVMTQSQKFMSTAVGDRVSVTCKASQNVGTNVAWYQQKPGQSPKALIYSASFRYSGVPDRFSGSGSGTDFTLTISNVQSEDLAEYFCQQYNSYPLTFGSGTKLEIK | 0.251 nM and 0.027 µg/mL | 16.8 nM | 4.1 µg/mL and 27.4 nM | 1.06 nM | 0.5 nM | 27.4 nM | IC50 [4]: 10.1 nM; IC50 [5]: 13.8 nM; IC50 [9]: 10.1 nM; IC50 [11]: 13.8 nM
15 | 3-E2-A (antibody, V domains shown) VH: EVQLQQSGPELVKPGASVKISCKASGYTFTDYYMNWVKQSHGKSLEWIGDINPNNGGTSYTQKFKGKATLTVDKSSSKAYMELRSLTSEDSAVYYCARRGDGHYGGFTYWGQGTLVTVSA VL: not shown | 0.547 nM and 0.085 µg/mL | – | 9 µg/mL and 59.9 nM | 71.6 nM | – | 59.9 nM | –
16 | 2-O12-A (antibody, V domains shown) VH: EVQLQQSGPELVKPGASVKISCKASGYTFTDYYMNWVKQSHGKSLEWIGDINSNNGGTTYDQKFKGKATLTVDRSSSTAYMELRSLTSEDSAVYYCARRGDGHFGGFTYWGQGTLVTVSA VL: not shown | 0.096 µg/mL and 0.625 nM | 84.3 nM | 4.2 µg/mL and 28 nM | 192 nM | 30.1 nM | 28 nM | –
17 | 10-L24-A (antibody, V domains shown) VH: EVQLQQSGPELVKPGASVKISCKASGYTFTDYYMNWVKQSHGKSLEWIGDINSNNGGTTYDQKFKGKATLTVDRSSSTAYMELRSLTSEDSAVYYCARRGDGHFGGFTYWGQGTLVTVSA VL: not shown | 0.063 µg/mL and 0.405 nM | – | 2.9 µg/mL and 19.5 nM | 61.9 nM | 20.6 nM | 19.5 nM | IC50 [5]: 97 nM; IC50 [11]: 97.3 nM
